Target: the molecule itself
Assay: SEC-SAXS; inline SEC-SAXS; 25 mM HEPES pH 8.0, 200 mM NaCl, 1 mM TCEP, with or without 1 mM ADP or AMPPNP; 25°C; 10 mg/ml protein, 100 μl injected; scattering fitted with dimer models (EOM, OLIGOMER)

B1: mouse GRP94 (22-754) (natural protein, UniProt P08113 22-754, looked up)
chain: DDEVDVDGTVEEDLGKSREGSRTDDEVVQREEEAIQLDGLNASQIRELREKSEKFAFQAEVNRMMKLIINSLYKNKEIFLRELISNASDALDKIRLISLTDENALAGNEELTVKIKCDKEKNLLHVTDTGVGMTREELVKNLGTIAKSGTSEFLNKMTEAQEDGQSTSELIGQFGVGFYSAFLVADKVIVTSKHNNDTQHIWESDSNEFSVIADPRGNTLGRGTTITLVLKEEASDYLELDTIKNLVRKYSQFINFPIYVWSSKTETVEEPLEEDEAAKEEKEESDDEAAVEEEEEEKKPKTKKVEKTVWDWELMNDIKPIWQRPSKEVEEDEYKAFYKSFSKESDDPMAYIHFTAEGEVTFKSILFVPTSAPRGLFDEYGSKKSDYIKLYVRRVFITDDFHDMMPKYLNFVKGVVDSDDLPLNVSRETLQQHKLLKVIRKKLVRKTLDMIKKIADEKYNDTFWKEFGTNIKLGVIEDHSNRTRLAKLLRFQSSHHSTDITSLDQYVERMKEKQDKIYFMAGSSRKEAESSPFVERLLKKGYEVIYLTEPVDEYCIQALPEFDGKRFQNVAKEGVKFDESEKTKESREATEKEFEPLLNWMKDKALKDKIEKAVVSQRLTESPCALVASQYGWSGNMERIMKAQAYQTGKDISTNYYASQKKTFEINPRHPLIRDMLRRIKEDEDDKTVMDLAVVLFETATLRSGYLLPDTKAYGDRIERMLRLSLNIDPEAQ
notes: GRP94 (endoplasmin), mouse, residues 22-754, with the full pre-N domain and the charged linker region preserved; The N-terminal Strep-tag II is followed by a thrombin site; no thrombin cleavage is described; The C-terminal 6xHis tag was removed with TEV protease; also called mGRP94; mGrp94; source: E. coli BL21 (DE3), purified (Histrap HP, TEV cleavage, Hitrap Q HP, second Histrap HP …)
**Q.** Does B1 bind?
**A.** binds

Reference: paper PMC10638095, “Visualization of conformational transition of GRP94 in solution” (Life Science Alliance, 2023)
